Assay: label from the status in PepcDB records

For “MKDIIRFILRLVQNPIVLAILWFGVAIRGFWVSWTEGLANNYLIFSRSFFHALEQTPLYVEYPKEYFDLFLYGIPFTLLIAPFSIMPTMVGSALWSLCNALLLYFAIKKLEFEKWKTAIIVWLSYNGLYLSVVTQQYNAAVAAFILFTFILVERKKDFWAALMIVLGTLTKIYGIVGLAFFLFSKRKLYFLWGILFWAFVLFVVPMFYTSPQYVFDSYKEWVSILVVKNDVNELSFYQNISLLGMVRKITHAVEYSDMWLIIPGIVLFLLPYLRIGQYENRNFRLSFLASVLLFMVLFSTGTEECGYVGALIGVGIWYVSTPTYKKSFVLNTCLLLFCFALTAASSSSILFSKHFRTEYITSFALKALPCAIIWFKIIWEQLTQDYTSRTPTPFLHKKDDERIDVILPCYNPHEGWEQQLIEKHKELEGMLNGYNIRFIVVNDGSKRGFTEEAVLRLTNNLPNTIIVDNKINQGKGAAVRDGIAHSDSELALYTDYDFPYKIESVCQVIKYLEEGYDVVVANRNHTYYSQLSTRRKLASHASRFLNFMLLGLTHTDTQGGLKGFNCKGKAFLASTRIKQFLFDTEFIYKASLDDTTFIKEVPVDLRGEVMLPDMKKGVFVNELKNLLMICWRG”, the protein production was “failed”.
In the case of “MVMIWYKALFSFNGRLNRQGFWIGFGINFIFLFIIANFGPKETAFSLTMVLPLLLASYSCVAVIIKRLHDRNRSARAILMMFIPLICYGVSLATQGTMAWLLGVMMPMFIGTMLLLEWGVFKSYPQANQYGEKGETFCFT”, the protein production is reported as “failed”.
In the case of “MDDKTAGGKIVMNKEQLLLFMENRRKQEDHRLALAKEATRSEMVDRKASGKIIMNHDQQLMFNEDHRLAVKKASRSEMVDLEGMGSEASVIMSNVPQPTSFSEDHKLAIKNIISKIVKEIRDRDHPA”, the protein production is reported as “failed”.
With “MSTGATIVIDLGKTLSKVSLWDLDGRMLDRQVRPSIPLEIDGIRRLDAPDTGRWLLDVLSRYADHPVTTIVPVGHGAGIAALTDGRLAFPPLDYEQSIPEAVMADYRSQRDPFARTGSPALPDGLNIGSQLWWLDQLHPDVMANATLLPWAQYWAWFLTGRAVSEVTSLGCHSDLWDPQDGDFSPMAKRLGWAARFAPIVRAGDTVGALLPAIAERTGLSPDVQVLAGLHDSNAALLAARGFAEIADNEATVLSTGTWFIAMRLPATPVDTATLPEARDCLVNVDVHGRPVPSARFMGGREIETLIEIDTRRVDIKPDQPALLAAVPEVLRHGRMILPTLMRGFGPYPHGRFAWINRPEDWFERRAAACLYAALVADTALDLIGSTGRILVEGRFAEADVFVRALASLRPDCAVYTANAHNDVSFGALRLIDPGLRPQGELVRIEPLDTGSWADLDTYRNRWQAEVEAAKVEPITLEHHHHHH” the protein production was “not failed”.
With “MSSSDIFIGETIGTAVLILLGGGVCAAVTLKASKARNAGWLAITFGWGFAVLTAVYISAPLSGAHLNPAVTLALAIKDNDWSNVPTYWAGQLLGAMIGAALVWVAYYGQFHAHLTDHEIVGGPGAQATKTKAVEAQETGAGPVLGVFSTGPEVRNVVQNLATEIIGTVVLVLAILTQGLNDNGNGLGTIGALITSLVVVSIGLSLGGPTGYAINPARDLGPRIVHALLPLPNKGGSDWSYAWIPVVGPLIGAAIAAGIYNVAFA” the protein production was “failed”.
In the case of “MADIIGLLLPFFGLIFIGYGAARITKQPVEAMGWLNTFIIYAALPALFFKLVSKTPVEELARMDFVAASLACTYGIFLAVFLIGRFVRRNSLAETTIQSFAASYGNIGYMGPGLALLALGEKAAVPVALIVCLENAAHFIVAPAMMAVAGGDKRSAGKLALDVARKVITHPFIVSVIAGFLAASLSWQPPEAVQRLVDYLAQSAAPCALFAMGVTLALRPMKRVPVEISYIVPAKLILHPLAAYLVLSSLGRFEPVWIYSAVLLAALPTATNVFVIGQQYHVWQERASATILISTVLSVFTLTGVVYFIQPF”, the protein production is reported as “failed”.
In the case of “MKKLAISIGDINSIGLEILVRSHEELSKICTPFYFIHESLLNKALKLLNLKLFNAKIVAFKDDKDYEFNFIKKENSLEIYSFCLPLGFKVDENFEIQAGEIDAKSGLYGFLSFKAASYFVYEKHAHALLTLPIHKKAWEDAGLKYKGHTDALRDFFKKNAIMMLGCKELFVGLFSEHIPLAKVSKKITFKNLSIFLKDFYKETHFKKMGLLGFNPHAGDYGVIGGEEEKIMEKAIAFVNAFLHSKKDEKFFKKALKDENLQKELLLNFKGKGVYLPYPLVADTAFTKTGLKNCNRLVAMYHDLALAPLKALYFDKSINVSLNLPIIRVSVDHGTAFDKAYKNAKINTKSYFEAAKFAINLHSKA”, the protein production is reported as “not failed”.
